Source: PMC8026907

How the values were obtained:
Details in all cases: protein: recombinant; tags: His-tag (pET-3a); chain copies: 2; blunt
[1] = target: T1, CRP-MTB (cAMP receptor protein, wild type) (Mycobacterium tuberculosis, UniProt P9WMH3 1-224); assay: fluorescence anisotropy; 1 mM cAMP
T1 sequence: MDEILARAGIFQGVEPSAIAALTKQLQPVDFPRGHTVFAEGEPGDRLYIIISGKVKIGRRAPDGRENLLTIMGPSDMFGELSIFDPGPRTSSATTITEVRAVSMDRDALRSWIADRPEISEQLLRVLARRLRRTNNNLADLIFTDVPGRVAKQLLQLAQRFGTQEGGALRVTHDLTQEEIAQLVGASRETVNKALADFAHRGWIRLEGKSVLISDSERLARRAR

[2] = target: T1, CRP-MTB (cAMP receptor protein, wild …); assay: fluorescence anisotropy; no cAMP (apo)
[3] = target: T1, CRP-MTB (cAMP receptor protein, wild …); assay: fluorescence anisotropy; 0.1 mM cAMP

B1: SerC promoter 20-bp, fluorescein (dsDNA)
DNA 1: AGTGTGAACAAGCTCACATG
DNA 2: CATGTGAGCTTGTTCACACT
Ka [1]: 0.5 ± 0.1 1e8 M-1
Ka [2]: 0.12 ± 0.02 1e8 M-1

B2: SerC promoter 32-bp, fluorescein (dsDNA)
DNA 1: GCGCGTAGTGTGAACAAGCTCACATGCAAGCC
DNA 2: GGCTTGCATGTGAGCTTGTTCACACTACGCGC
Ka [1]: 4.2 ± 1.7 1e8 M-1
Ka [3]: 4.5 ± 1.2 1e8 M-1
Ka [2]: 2.3 ± 0.9 1e8 M-1
